Assay results: US20090186036A1 (Biogen, published 2009)

B1: soluble recombinant human αvβ6 (receptor)
chain 1: FNLDVDSPAEYSGPEGSYFGFAVDFFVPSASSRMFLLVGAPKANTTQPGIVEGGQVLKCDWSSTRRCQPIEFDATGNRDYAKDDPLEFKSHQWFGASVRSKQDKILACAPLYHWRTEMKQEREPVGTCFLQDGTKTVEYAPCRSQDIDADGQGFCQGGFSIDFTKADRVLLGGPGSFYWQGQLISDQVAEIVSKYDPNVYSIKYNNQLATRTAQAIFDDSYLGYSVAVGDFNGDGIDDFVSGVPRAARTLGMVYIYDGKNMSSLYNFTGEQMAAYFGFSVAATDINGDDYADVFIGAPLFMDRGSDGKLQEVGQVSVSLQRASGDFQTTKLNGFEVFARFGSAIAPLGDLDQDGFNDIAIAAPYGGEDKKGIVYIFNGRSTGLNAVPSQILEGQWAARSMPPSFGYSMKGATDIDKNGYPDLIVGAFGVDRAILYRARPVITVNAGLEVYPSILNQDNKTCSLPGTALKVSCFNVRFCLKADGKGVLPRKLNFQVELLLDKLKQKGAIRRALFLYSRSPSHSKNMTISRGGLMQCEELIAYLRDESEFRDKLTPITIFMEYRLDYRTAADTTGLQPILNQFTPANISRQAHILLDCGEDNVCKPKLEVSVDSDQKKIYIGDDNPLTLIVKAQNQGEGAYEAELIVSIPLQADFIGVVRNNEALARLSCAFKTENQTRQVVCDLGNPMKAGTQLLAGLRFSVHQQSEMDTSVKFDLQIQSSNLFDKVSPVVSHKVDLAVLAAVEIRGVSSPDHVFLPIPNWEHKENPETEEDVGPVVQHIYELRNNGPSSFSKAMLHLQWPYKYNNNTLLYILHYDIDGPMNCTSDMEINPLRIKISSLQTTEKNDTVAGQGERDHLITKRDLALSEGDIHTLGCGVAQCLKIVCQVGRLDRGKSAILYVKSLLWTETFMNKENQNHSYSLKSSASFNVIEFPYKNLPIEDITNSTLVTTNVTWGIQPAPMPV
chain 2: GCALGGAETCEDCLLIGPQCAWCAQENFTHPSGVGERCDTPANLLAKGCQLNFIENPVSQVEILKNKPLSVGRQKNSSDIVQIAPQSLILKLRPGGAQTLQVHVRQTEDYPVDLYYLMDLSASMDDDLNTIKELGSRLSKEMSKLTSNFRLGFGSFVEKPVSPFVKTTPEEIANPCSSIPYFCLPTFGFKHILPLTNDAERFNEIVKNQKISANIDTPEGGFDAIMQAAVCKEKIGWRNDSLHLLVFVSDADSHFGMDSKLAGIVIPNDGLCHLDSKNEYSMSTVLEYPTIGQLIDKLVQNNVLLIFAVTQEQVHLYENYAKLIPGATVGLLQKDSGNILQLIISAYEELRSEVELEVLGDTEGLNLSFTAICNNGTLFQHQKKCSHMKVGDTASFSVTVNIPHCERRSRHIIIKPVGLGDALELLVSPECNCDCQKEVEVNSSKCHHGNGSFQCGVCACHPGHMGPRCECGEDMLSTDSCKEAPDHPSCSGRGDCYCGQCICHLSPYGNIYGPYCQCDNFSCVRHKGLLCGGNGDCDCGECVCRSGWTGEYCNCTTSTDSCVSEDGVLCSGRGDCVCGKCVCTNPGASGPTCERCPTCGDPCNSKRSCIECHLSAAGQAREECVDKCKLAGATISEEEDFSKDGSVSCSLQGENECLITFLITTDNEGKTIIHSINEKDCPKPPNIP
notes: extracellular domain; also called hsαvβ6; soluble human truncated αvβ6

Experiments:
[1] = target: T1, 6.3G9; assay: KinExA: soluble αvβ6 titrated against 1e-10 M antibody, free antibody caught on integrin-coated beads
T1 construct: ATCC PTA-3649; also called biotinylated 6.3G9
Procedure: A series of dilutions of the soluble integrin (1×10⁻⁸ M to 2.4×10⁻¹² M) were incubated with 1×10⁻¹⁰ M of the antibody for 3 h. These samples were then passed through polymethylmethacrylate beads coated with the integrin using a KinExA instrument (Sapidyne Instruments, Inc., Boise, Id.). In the case of 6.8G6, 11 mM CaCl₂ and […] MgCl₂ were included in the incubation and assay buffers. The amounts of bound and free antibody were determined using a Cy5-labeled anti-mouse secondary antibody. Quadratic curve fitting was performed using the KinExA software to attain a dissociation constant (Kd) for each interaction. […] Thus, both of these antibodies had very high affinities for αᵥβ₆.

[2] = target: B1; assay: ELISA, coated hsαvβ6
Procedure: A 96-well microtiter plate (Corning COSTAR EASY-WASH) was coated with 50 μl/well of 5 μg/ml hsαᵥβ₆ at 4° C. overnight. The plate was washed with wash buffer (0.1% TWEEN-20 in PBS) four times in an automated plate washer. Then 180 μl/well of 3% BSA in TBS was added and incubated for 1 hr at 25° C. to block nonspecific binding. The plate was washed as above, and dilutions of either hybridoma supernatant (for screening assays) or purified antibody (for characterization) in TBS containing 1 mg/ml BSA, 1 mM CaCl₂, and 1 mM MgCl₂ were added (50 μl/well). The plate was incubated for 1 hr at 25° C., washed, and then incubated for 1 hr with 50 μl/well of […] goat anti-mouse IgG+A+M antibody (Cappel). Bound antibody was detected using 3,3′,5,5′-tetramethylbenzidine (TMB). Binding was indicated by the absorbency measured at 450 nm.

[3] = target: T2, αvβ6 on β6-transfected FDC-P1 cells (murine, UniProt P43406 31-1044; Q9Z0T9 22-787); assay: β6-FDC-P1 cells to coated LAP, blocking
T2 construct: whole, on cells; αv is that of the murine host cell line; also called β6-FDC-P1 cells; β6-transfected murine cells
T2 sequence (P43406 31-1044, chain 1 of 2): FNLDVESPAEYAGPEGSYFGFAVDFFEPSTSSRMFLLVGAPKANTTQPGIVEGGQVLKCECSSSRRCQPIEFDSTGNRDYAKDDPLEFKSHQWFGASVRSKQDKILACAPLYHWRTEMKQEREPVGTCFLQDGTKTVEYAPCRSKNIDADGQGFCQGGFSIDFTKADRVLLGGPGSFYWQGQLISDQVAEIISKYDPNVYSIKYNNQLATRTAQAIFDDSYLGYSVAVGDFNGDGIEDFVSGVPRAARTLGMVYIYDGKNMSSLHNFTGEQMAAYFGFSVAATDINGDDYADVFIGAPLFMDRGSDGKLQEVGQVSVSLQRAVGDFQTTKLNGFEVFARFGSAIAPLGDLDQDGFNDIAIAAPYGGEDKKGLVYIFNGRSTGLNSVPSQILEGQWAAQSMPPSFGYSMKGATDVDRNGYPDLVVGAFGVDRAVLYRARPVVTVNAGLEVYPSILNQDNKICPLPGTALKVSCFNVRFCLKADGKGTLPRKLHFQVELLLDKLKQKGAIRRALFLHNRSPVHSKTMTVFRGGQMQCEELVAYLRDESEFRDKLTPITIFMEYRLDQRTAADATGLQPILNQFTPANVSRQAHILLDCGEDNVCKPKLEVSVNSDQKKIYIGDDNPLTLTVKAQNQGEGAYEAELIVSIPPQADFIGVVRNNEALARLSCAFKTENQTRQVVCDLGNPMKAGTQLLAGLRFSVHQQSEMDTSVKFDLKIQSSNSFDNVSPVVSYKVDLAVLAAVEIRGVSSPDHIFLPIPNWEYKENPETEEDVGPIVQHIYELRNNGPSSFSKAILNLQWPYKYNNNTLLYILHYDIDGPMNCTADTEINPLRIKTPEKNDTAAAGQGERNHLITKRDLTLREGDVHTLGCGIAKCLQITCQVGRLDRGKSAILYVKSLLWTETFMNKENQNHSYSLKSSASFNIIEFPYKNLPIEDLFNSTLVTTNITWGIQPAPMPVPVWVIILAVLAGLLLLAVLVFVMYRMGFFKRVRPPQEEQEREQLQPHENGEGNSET
T2 sequence (Q9Z0T9 22-787, chain 2 of 2): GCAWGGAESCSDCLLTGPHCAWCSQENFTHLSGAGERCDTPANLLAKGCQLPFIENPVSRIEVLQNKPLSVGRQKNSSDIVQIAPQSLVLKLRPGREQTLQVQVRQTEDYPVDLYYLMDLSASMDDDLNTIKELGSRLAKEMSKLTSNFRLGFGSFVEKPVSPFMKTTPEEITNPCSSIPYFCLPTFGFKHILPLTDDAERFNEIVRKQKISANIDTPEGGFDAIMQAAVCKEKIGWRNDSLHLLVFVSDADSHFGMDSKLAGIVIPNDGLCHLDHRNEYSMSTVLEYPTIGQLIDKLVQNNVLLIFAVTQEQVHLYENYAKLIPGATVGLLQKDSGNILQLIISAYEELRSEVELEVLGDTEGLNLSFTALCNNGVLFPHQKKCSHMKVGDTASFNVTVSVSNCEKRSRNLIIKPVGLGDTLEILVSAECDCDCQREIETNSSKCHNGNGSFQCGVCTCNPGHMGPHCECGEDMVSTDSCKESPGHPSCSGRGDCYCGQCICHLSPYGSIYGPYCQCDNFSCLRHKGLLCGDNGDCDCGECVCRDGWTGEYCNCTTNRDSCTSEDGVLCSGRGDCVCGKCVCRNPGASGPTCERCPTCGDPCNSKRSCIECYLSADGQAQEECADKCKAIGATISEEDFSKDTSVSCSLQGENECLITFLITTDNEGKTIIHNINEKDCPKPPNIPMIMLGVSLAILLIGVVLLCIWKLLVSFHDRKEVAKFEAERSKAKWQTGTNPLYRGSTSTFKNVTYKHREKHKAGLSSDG
Procedure: A 96-well microtiter plate was coated with 50 μl/well of 0.5 μg/ml recombinant human LAP (R&D Systems) diluted in 50 mM sodium bicarbonate, pH 9.2 at 4° C. overnight. The plate was washed twice with PBS (100 μl/well) and blocked with 1% BSA in PBS (100 μl/well) for 1 hr at 25° C. The plate was washed twice with 100 μl/well of assay buffer (TBS complete plus 1 mM CaCl₂ and 1 mM MgCl₂). Next, to the individual wells of the plate were added 25 μl of a hybridoma supernatant (or a purified antibody) and 25 μl of β₆-FDC-P1 cells (5×10⁶ cells/ml, labeled with Calcein AM as described above). The plate was incubated at 25° C. for 1 hr, and then washed 4-6 times with the assay buffer (100 μl/well). The fluorescence emitted from cells captured on the plate was recorded. Percentage binding was determined by comparing the fluorescence signal prior to the final wash step (i.e., total cells added) to that after washing (i.e., bound cells).

[4] = target: αvβ6 on β6-transfected SW480 cells (UniProt P06756 31-1048; P18564 22-788); assay: cell-based or functional assay
[5] = target: B1; assay: biotin-hsαvβ6 to coated LAP, blocking
Procedure: 96-well microtiter plates (Corning COSTAR EASY-WASH) were coated with 0.3 μg/ml recombinant human LAP (R&D Systems, Cat. # 246-LP) diluted in PBS (50 μl/well) at 4° C. overnight. After the coating solution was removed, the plates were blocked with 180 μl/well of 3% BSA/TBS at 25° C. for 1 hr. […] After washing the LAP-coated plate with wash buffer (0.1% TWEEN-20 in PBS) 4 times in an automated plate washer, 100 μl of the antibody-αᵥβ₆ mixture was transferred to the plate, and incubated for 1 hr at 25° C. The plate was washed as above and incubated with 50 μl/well of a 1:1000 dilution of extravidin-horseradish peroxidase conjugate (Sigma) in TBS (1 mg/ml BSA) for 1 hr at 25° C. Bound protein was detected using the TMB substrate.
The purified antibodies were next evaluated for their ability to inhibit the αᵥβ₆-LAP interaction.

Binder | IC50 (read off the curve) [1] [nM] | EC50 [2] [mg/L] | IC50 [3] [mg/L] | PAI-1 luciferase IC50 [4] [mg/L] | IC50 [5] [mg/L]
B1 | ~0.05 |  |  |  | 
7.7G5 (antibody, V domains shown, ATCC PTA-3899) VH: EVQLQQSGPELVKPGASVKISCKASGYSFTGYFMNWVMQSHGKSLEWIGRIKPYNGDNFYNQKFMGKATLTVDKSSSTVHMELRSLASEDSAVYYCARDRYGTYGMDYWGQGTSVTVSS VL: QIVLTQSPAIMSASPGEKVTMTCSASSSVSYMHWYQQKSGTSPKRWIYDTSKLASGVPTRFSGSGSGTSYSLTINSMEAEDAATYYCQQWSSHPPTFGAGTKLELK |  | 0.013 | 0.051 | 0.7 | 0.155
7.1G10 (antibody, V domains shown, ATCC PTA-3898) VH: QVQLQQSGPELVKPGASVRISCKASGYTFTSYYIHWVKQRPGQGLEWIGWLYPGKINTRYNEKFKGKATLIADKSSSTAYMQLSSLTSEDSAVYFCARHVLNGNFDYWGQGTTLTVSS VL: DIQMTQSPSSLSASLGERVSLTCRASQEISGYLSWLQQKPDGSIKRLIYAASTLDSGVPKRFSGSRSGADYSLTISSLESEDFADYYCLQYATYPYTFGGGTKLEIK |  | 0.0042 | 0.03 | 0.25 | 0.113
